Experimental data: US20250361312A1
Read-outs that look alike come from different tables or passages of the source.

Tests used:
[1] = biological target: human OX40 receptor, cell-expressed (DO11.10-hOX40) (human) (UniProt P43489); assay: cell-based or functional assay
[2] = biological target: human OX40 receptor, cell-expressed (DO11.10-hOX40) (human) (UniProt P43489); assay: cell-based or functional assay; remark: listed apart in the source
[3] = biological target: human OX40 receptor, cell-expressed (DO11.10-hOX40) (human) (UniProt P43489); assay: cell-based or functional assay; remark: listed apart in the source
[4] = biological target: human OX40 receptor, cell-expressed (DO11.10-hOX40) (human) (UniProt P43489); assay: cell-based or functional assay; remark: listed apart in the source
[5] = biological target: cynomolgus OX40 receptor, cell-expressed (DO11.10-cOX40) (cynomolgus); assay: flow cytometry on DO11.10-cOX40 cells
[6] = biological target: human OX40 receptor, cell-expressed (DO11.10-hOX40) (human) (UniProt P43489); assay: flow cytometry on DO11.10-hOX40 cells

human OX40 receptor, cell-expressed (DO11.10-hOX40) (human), sequence (P43489 29-277): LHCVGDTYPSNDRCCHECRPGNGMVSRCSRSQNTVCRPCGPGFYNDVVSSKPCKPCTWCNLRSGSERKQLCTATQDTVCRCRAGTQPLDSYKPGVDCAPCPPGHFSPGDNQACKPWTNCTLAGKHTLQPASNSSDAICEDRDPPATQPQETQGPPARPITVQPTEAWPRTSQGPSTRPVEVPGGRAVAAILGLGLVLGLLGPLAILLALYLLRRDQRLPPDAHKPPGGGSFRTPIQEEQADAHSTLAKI
cynomolgus OX40 receptor, cell-expressed (DO11.10-cOX40) (cynomolgus), sequence (P43489 other isoform, or with tags, fused parts or gaps): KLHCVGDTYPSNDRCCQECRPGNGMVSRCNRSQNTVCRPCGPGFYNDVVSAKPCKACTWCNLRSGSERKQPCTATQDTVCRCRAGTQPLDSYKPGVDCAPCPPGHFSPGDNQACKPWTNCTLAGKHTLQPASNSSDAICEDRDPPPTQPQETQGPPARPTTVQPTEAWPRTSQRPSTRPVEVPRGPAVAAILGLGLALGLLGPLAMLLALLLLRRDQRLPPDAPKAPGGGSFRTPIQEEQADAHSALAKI

Substance | EC50 of IL-2 release, Xlink (anti-hCH2) [1] [nM] | Max response, Xlink (anti-hCH2) [1] [mIL-2 pg/ml] | EC50 of IL-2 release, HPAC cells present, Xlink (anti-hCH2) [2] [nM] | EC50 of IL-2 release, Xlink (anti-hCH2) [2] [nM] | Max response, HPAC cells present, Xlink (anti-hCH2) [2] [mIL-2 pg/ml] | Max response, Xlink (anti-hCH2) [2] [mIL-2 pg/ml] | EC50 of IL-2 release, Xlink (anti-hCH2) [3] [nM] | Max response, Xlink (anti-hCH2) [3] [mIL-2 pg/ml] | EC50 of IL-2 release, Xlink (anti-hCH2) [4] [nM] | Max response, Xlink (anti-hCH2) [4] [mIL-2 pg/ml] | EC50 [5] [nM] | EC50 of IL-2 release, crosslinked (anti-human CH2 mAb) [2] [nM] | Max response, crosslinked [2] [hIL-2 pg/ml] | EC50 [6] [nM]
G1/11D4 (antibody) | 0.000153 | 25000 | 0.228 | 0.199 | 14800 | 21900 | 0.196 | 7200 | 0.14 | 24500 |  |  |  | 
G1AA/11D4 (antibody) |  |  |  |  |  |  |  |  |  |  | 0.213 | 0.0493 | 26700 | 0.814
